Assay results taken from patent US20220396612A1 (UNIVERSIT DE TOURS, published 2022).

Key:
Experiment in all cases: ELISA on denatured VLP (carbonate pH 10.6 + DTT; threshold OD>0.5)
[1] = target: T1, denatured VLPs of BK polyomavirus VP-1 protein, serotype Ia (BK virus (BKPyV), serotype Ia, UniProt P03088 1-361)
T1 construct: also called Ia denatured; linearised VP-1 protein
T1 chain: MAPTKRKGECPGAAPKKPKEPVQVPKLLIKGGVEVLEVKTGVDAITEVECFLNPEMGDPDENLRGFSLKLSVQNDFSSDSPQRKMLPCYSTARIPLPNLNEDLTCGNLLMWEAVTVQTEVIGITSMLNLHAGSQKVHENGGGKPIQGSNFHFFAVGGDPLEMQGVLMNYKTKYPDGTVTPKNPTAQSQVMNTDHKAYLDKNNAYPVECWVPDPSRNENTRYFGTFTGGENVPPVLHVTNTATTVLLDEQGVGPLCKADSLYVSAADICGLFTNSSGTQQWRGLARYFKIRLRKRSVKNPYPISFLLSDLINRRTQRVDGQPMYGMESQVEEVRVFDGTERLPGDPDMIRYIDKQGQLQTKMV
Experimental: (§1) The wells were then blocked for 1 hour at +37° C. with a PBS/SVF mixture. After dilution in a dilution buffer containing SVF, PBS and Tween® 20, the individual culture supernatants or purified antibodies were added for 1 hour at +37° C. The wells were washed four times in a row with Wash Buffer and a secondary anti-mouse peroxidase antibody was added to the 1/2000 dilution for 1 hour at +37° C. The wells were washed again four times in a row and the substrate was added for 30 minutes at room temperature. A stop solution was added and then each well was read by measuring the absorbance at 492 nm with a spectrophotometer. The value obtained for the average of the control wells (PBS in the first step) was subtracted from the optical density values obtained for each well (detection threshold: OD>0.5).

[2] = target: T2, denatured VLPs of BK polyomavirus VP-1 protein, serotype Ib2 (BK virus (BKPyV), serotype Ib2, UniProt P03088 1-362)
T2 construct: also called Ib2 denatured
T2 chain: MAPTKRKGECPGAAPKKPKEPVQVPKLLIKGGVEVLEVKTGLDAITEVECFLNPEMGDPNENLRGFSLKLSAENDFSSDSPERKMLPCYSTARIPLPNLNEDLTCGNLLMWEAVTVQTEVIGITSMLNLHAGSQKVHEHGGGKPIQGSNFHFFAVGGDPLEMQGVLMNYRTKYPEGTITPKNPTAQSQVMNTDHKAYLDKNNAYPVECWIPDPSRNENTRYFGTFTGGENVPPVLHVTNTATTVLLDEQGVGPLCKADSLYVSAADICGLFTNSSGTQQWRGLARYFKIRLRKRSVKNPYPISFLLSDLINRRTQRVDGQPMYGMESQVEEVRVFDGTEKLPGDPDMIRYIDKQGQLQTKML
Experimental: as §1

[3] = target: T3, denatured VLPs of BK polyomavirus VP-1 protein, serotype II (BK virus (BKPyV), serotype II, UniProt P14996 1-362)
T3 construct: also called II denatured
T3 chain: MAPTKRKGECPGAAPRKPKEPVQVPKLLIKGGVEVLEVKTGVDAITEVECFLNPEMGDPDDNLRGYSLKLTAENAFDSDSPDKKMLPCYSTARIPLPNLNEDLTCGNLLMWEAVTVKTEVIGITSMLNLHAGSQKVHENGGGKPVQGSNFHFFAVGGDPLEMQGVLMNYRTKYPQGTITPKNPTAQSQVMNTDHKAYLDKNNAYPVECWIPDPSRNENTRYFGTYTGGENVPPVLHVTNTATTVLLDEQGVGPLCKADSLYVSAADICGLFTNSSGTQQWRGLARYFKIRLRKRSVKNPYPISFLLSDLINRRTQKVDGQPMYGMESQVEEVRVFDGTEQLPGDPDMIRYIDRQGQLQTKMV
Experimental: as §1

B1: monoclonal antibody ‘18A2’ derived from hybridoma 18A2 (antibody, V domains shown)
VH: DVQLQESGPGLVKPSQSLSLTCSVTGYSITSGYYWNWIRQFPGNKLEWMGYISYDGSNNYNPSLKNRISITRDTSKNQFFLKLNSVTTEDTATYYCARWEGTTDYWGQGTTLTVSS
VL: not shown
notes: Mouse hybridoma antibody
[1]
  OD 492 nm: 3.98 OD
[2]
  OD 492 nm: 0.16 OD
[3]
  OD 492 nm: 0.63 OD
